Test results as given in the supplement of paper PMC7877785.
± gives the uncertainty stated by the source.

Assay: self-splicing fitness, log relative to wild type (ln ratio); higher = more splicing; Tetrahymena group I intron in knt gene, E. coli kanamycin selection, DiMSum; sequences stand for … in CUCUCU…GGAGGGAAAAGUUAUCAGGCAUGCACCUGGUAGCUAGUCUUUAAACCAAUAGAUUGCAUCGGUUUAAAAGGCAAGACCGUCAAAUUGCGGGAAAGGGGUCAACAGCCGUUCAGUACCAAGUCUCAGGGGAAACUUUGAGAUGGCCUUGCAAAGGGUAUGGUAAUAAGCUGACGGACAUGGUCCUAACCACGCAGCCAAGUCCUAAGUCAACAGAUCUUCUGUUGAUAUGGAUGCAGUUCACAGACUAAAUGUCGGUCGGGGAAGAUGUAUUCUUCUCAUAAGAUAUAGUCGGACCUCUCCUUAAUGGGAGCUAGCGGAUGAAGUGAUGCAACACUGGAGCCGCUGGGAACUAAUUUGUAUGCGAAAGUAUAUUGAUUAGUUUUGGAGUACUCGUGGUCG
How it was run: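 Pooled colonies went to amplicon sequencing on an Illumina HiSeq 2500 after six replicate transformations. The plates were LB agar with 100 μg/mL carbenicillin, 50 μM IPTG and 0.2% rhamnose, with or without 25 μg/mL kanamycin, incubated overnight at 37°C or 30°C. The E. coli BL21(DE3) library had all eight P1ex-region intron nucleotides randomised, the intron placed in the knt kanamycin-resistance gene on pET-22b(+). DiMSum fitness is the error-weighted combination of replicate fold changes, kanamycin against none, normalised to wild type.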

Sequence	self-splicing fitness (ln) (30 °C)	self-splicing fitness (ln) (37 °C)
CUCAAGCAAUAUUACGAGGC	-3.51 ± 0.3	-2.65 ± 0.27
CUCAAGCAAUAUUACGAGUC	-3.49 ± 0.21	-3.23 ± 0.47
CUCAAGCAAUAUUACGCCAA	-3.55 ± 0.33	-2.37 ± 0.31
CUCAAGCAAUAUUACGCCUA	-2.82 ± 0.27	-2.16 ± 0.28
CUCAAGCAAUAUUACGCGAA	–	-1.79 ± 0.22
CUCAAGCAAUAUUACGCGGA	-3.12 ± 0.25	-4.56 ± 0.31
CUCAAGCAAUAUUACGGAAU	-3.95 ± 0.26	-2.67 ± 0.22
CUCAAGCAAUAUUACGGACU	-2.42 ± 0.15	-1.36 ± 0.2
CUCAAGCAAUAUUACGGAGG	-1.53 ± 0.098	-0.576 ± 0.087
CUCAAGCAAUAUUACGGAGU	-3.52 ± 0.17	-3.04 ± 0.18
CUCAAGCAAUAUUACGGCAC	-2.74 ± 0.2	-1.97 ± 0.28
CUCAAGCAAUAUUACGGCGG	-2.38 ± 0.092	-1.65 ± 0.11
CUCAAGCAAUAUUACGGGGG	-4.01 ± 0.23	-2.88 ± 0.2
CUCAAGCAAUAUUACGUACU	-3.51 ± 0.22	-1.29 ± 0.17
CUCAAGCAAUAUUACGUCAG	-1.5 ± 0.077	-0.908 ± 0.099
CUCAAGCAAUAUUACGUCAU	-2.99 ± 0.14	-2.55 ± 0.14
CUCAAGCAAUAUUACGUCGG	-2.02 ± 0.1	-1.27 ± 0.11
CUCAAGCAAUAUUACGUCGU	-3.21 ± 0.15	-1.12 ± 0.11
CUCAAGCAAUAUUACGUCUU	-3.42 ± 0.21	-2.06 ± 0.16
CUCAAGCAAUAUUACGUGGG	-4.05 ± 0.17	-2.85 ± 0.15
CUCAAGCAAUAUUACGUUCG	-3.18 ± 0.18	-3 ± 0.26
CUCAAGCAAUAUUACGUUGU	-3.9 ± 0.36	-2.89 ± 0.23
CUCCAGCAAUAUUACGAAGU	-3.59 ± 0.16	-2.98 ± 0.26
CUCCAGCAAUAUUACGAAUU	-3.27 ± 0.18	-2.18 ± 0.2
CUCCAGCAAUAUUACGCAAC	-3.98 ± 0.43	-3.13 ± 0.42

Sequence	self-splicing fitness (ln) (30 °C)	self-splicing fitness (ln) (37 °C)
CUCCAGCAAUAUUACGCGAA	-3.06 ± 0.14	-1.77 ± 0.16
CUCCAGCAAUAUUACGCGAU	-3.55 ± 0.13	-2.24 ± 0.14
CUCCAGCAAUAUUACGCUCU	-3.59 ± 0.31	-3.04 ± 0.34
CUCCAGCAAUAUUACGGAUA	-1.82 ± 0.11	-0.962 ± 0.1
CUCCAGCAAUAUUACGGGUA	-1.35 ± 0.067	-1.11 ± 0.08
CUCCAGCAAUAUUACGGGUG	-2.79 ± 0.097	-1.53 ± 0.088
CUCCAGCAAUAUUACGGUGC	-2.92 ± 0.17	-2.27 ± 0.24
CUCCAGCAAUAUUACGGUUG	-2.69 ± 0.097	-1.01 ± 0.12
CUCCAGCAAUAUUACGUACG	-1.82 ± 0.11	-0.463 ± 0.12
CUCCAGCAAUAUUACGUAGU	-3.75 ± 0.19	-2.89 ± 0.22
CUCCAGCAAUAUUACGUAUA	-3.54 ± 0.23	-0.63 ± 0.16
CUCCAGCAAUAUUACGUCUG	-3.51 ± 0.17	-2.54 ± 0.18
CUCGAGCAAUAUUACGAAAA	-1.93 ± 0.44	–
CUCGAGCAAUAUUACGAAGG	-2.2 ± 0.27	-1.38 ± 0.41
CUCGAGCAAUAUUACGACCA	-3.07 ± 0.26	-2.22 ± 0.49
CUCGAGCAAUAUUACGACCU	-3.42 ± 0.25	-3.53 ± 0.37
CUCGAGCAAUAUUACGACUA	-3.02 ± 0.33	-0.507 ± 0.21
CUCGAGCAAUAUUACGAGUG	-1.7 ± 0.1	-1.47 ± 0.12
CUCGAGCAAUAUUACGAUAU	-4.2 ± 0.31	-1.91 ± 0.25
CUCGAGCAAUAUUACGAUCU	-3.58 ± 0.25	-3.53 ± 0.26
CUCGAGCAAUAUUACGAUUU	-3.73 ± 0.2	-2.91 ± 0.21
CUCGAGCAAUAUUACGCACA	-4.64 ± 0.3	-1.94 ± 0.19
CUCGAGCAAUAUUACGCAUC	-3.3 ± 0.22	-2.49 ± 0.3
CUCGAGCAAUAUUACGCAUU	-3.59 ± 0.3	–
CUCGAGCAAUAUUACGCUAG	-4.42 ± 0.39	-2.52 ± 0.32

Sequence	self-splicing fitness (ln) (30 °C)	self-splicing fitness (ln) (37 °C)
CUCGAGCAAUAUUACGGAAG	-3.56 ± 0.2	-1.32 ± 0.13
CUCGAGCAAUAUUACGGAAU	-3.24 ± 0.2	-3.23 ± 0.38
CUCGAGCAAUAUUACGGACC	-3.81 ± 0.37	-2.52 ± 0.41
CUCGAGCAAUAUUACGGCAA	-1.82 ± 0.32	-2.31 ± 0.27
CUCGAGCAAUAUUACGGCAC	-3.63 ± 0.25	-2.16 ± 0.36
CUCGAGCAAUAUUACGGCAG	-1.71 ± 0.13	-1.03 ± 0.15
CUCGAGCAAUAUUACGGCAU	-2.71 ± 0.19	-3.09 ± 0.37
CUCGAGCAAUAUUACGGCGG	-1.2 ± 0.12	-0.858 ± 0.2
CUCGAGCAAUAUUACGGGGC	-3.41 ± 0.18	-1.51 ± 0.16
CUCGAGCAAUAUUACGGUCU	-3.02 ± 0.15	-2.11 ± 0.17
CUCGAGCAAUAUUACGGUUG	-3.73 ± 0.13	-2.07 ± 0.13
CUCGAGCAAUAUUACGUACC	-2.32 ± 0.26	-0.911 ± 0.39
CUCGAGCAAUAUUACGUCCG	-3.41 ± 0.18	-3.68 ± 0.42
CUCGAGCAAUAUUACGUCUA	-1.79 ± 0.24	-2.43 ± 0.31
CUCGAGCAAUAUUACGUGUG	-2.74 ± 0.12	-1.27 ± 0.095
CUCGAGCAAUAUUACGUUAC	–	-2.22 ± 0.43
CUCUAGCAAUAUUACGAAGG	-2.01 ± 0.38	-1.16 ± 0.32
CUCUAGCAAUAUUACGAAUC	–	-3.69 ± 0.39
CUCUAGCAAUAUUACGACAC	–	-2.49 ± 0.25
CUCUAGCAAUAUUACGAUGG	-3.61 ± 0.19	-1.91 ± 0.14
CUCUAGCAAUAUUACGCACG	-2.45 ± 0.17	-1.95 ± 0.23
CUCUAGCAAUAUUACGCCGU	-2.12 ± 0.27	-3.98 ± 0.39
CUCUAGCAAUAUUACGCCUU	-1.58 ± 0.18	–
CUCUAGCAAUAUUACGCUCC	–	-1.03 ± 0.36
CUCUAGCAAUAUUACGCUUC	-2.62 ± 0.27	-2.39 ± 0.34

Sequence	self-splicing fitness (ln) (30 °C)	self-splicing fitness (ln) (37 °C)
CUCUAGCAAUAUUACGGAGU	-3.04 ± 0.29	-2.61 ± 0.25
CUCUAGCAAUAUUACGGUGG	-2.88 ± 0.15	-2.48 ± 0.21
CUCUAGCAAUAUUACGUAGU	-4.1 ± 0.26	-4.45 ± 0.36
CUCUAGCAAUAUUACGUCUA	-2.31 ± 0.25	-2.88 ± 0.24
CUCUAGCAAUAUUACGUGAA	-3.77 ± 0.21	-3.07 ± 0.25
CUCUAGCAAUAUUACGUGAC	-4.2 ± 0.26	-1.68 ± 0.17
CUCUAGCAAUAUUACGUGCG	-2.61 ± 0.22	-3.7 ± 0.3
CUCUAGCAAUAUUACGUUAU	-3.92 ± 0.4	-2.16 ± 0.25
CUGAAGCAAUAUUACGAAGG	-0.457 ± 0.093	-1.38 ± 0.14
CUGAAGCAAUAUUACGACUA	-1.29 ± 0.16	-0.875 ± 0.21
CUGAAGCAAUAUUACGAUAC	-2.44 ± 0.32	-1.94 ± 0.36
CUGAAGCAAUAUUACGAUCU	-3.3 ± 0.16	-3.2 ± 0.28
CUGAAGCAAUAUUACGAUGC	-3.46 ± 0.21	-2.86 ± 0.33
CUGAAGCAAUAUUACGCAAC	–	-2.22 ± 0.35
CUGAAGCAAUAUUACGCAUG	-0.485 ± 0.063	0.071 ± 0.1
CUGAAGCAAUAUUACGCCCA	-2.13 ± 0.34	–
CUGAAGCAAUAUUACGCCCG	-0.0662 ± 0.23	0.309 ± 0.24
CUGAAGCAAUAUUACGCCCU	-3.03 ± 0.22	-2.86 ± 0.47
CUGAAGCAAUAUUACGCCGA	-1.44 ± 0.22	–
CUGAAGCAAUAUUACGCGAA	-3.12 ± 0.32	-0.319 ± 0.18
CUGAAGCAAUAUUACGCGCU	-3.35 ± 0.29	–
CUGAAGCAAUAUUACGCUUU	-3.4 ± 0.31	-3.78 ± 0.42
CUGAAGCAAUAUUACGGAAU	-3.01 ± 0.15	-1.96 ± 0.15
CUGAAGCAAUAUUACGGCUC	-2.75 ± 0.16	-2.52 ± 0.25
